Measurements as given in the supplement of paper PMC5998384.

Key:
HeLa Kyoto [1] = experiment: solubility in G1/S (NP-40 vs SDS abundance) (log2 ratio); higher = more soluble; conditions: cell cycle stage: G1/S
HeLa Kyoto [2] = experiment: melting temperature (median over replicates), in situ; higher = more thermally stable
HeLa Kyoto [3] = experiment: solubility change mitosis vs G1/S (difference of NP-40 vs SDS log2 ratios) (log2 ratio difference); higher = more soluble in mitosis
HeLa Kyoto [4] = experiment: thermal stability score vs G1/S (z-score of summed log2 fold changes over temperatures); higher = more thermally stable than in G1/S
[5] = cell cycle stage: early G1 (4.5 h after nocodazole release)
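Throughout, for melting temperature (median over replicates), in situ: HeLa Kyoto cells synchronized by double thymidine or nocodazole block, proteins quantified by TMT10plex mass spectrometry, three independent biological replicates.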
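Throughout, for solubility change mitosis vs G1/S (difference of NP-40 vs SDS log2 ratios): synchronized HeLa Kyoto cells (double thymidine block for G1/S, nocodazole release for mitosis), protein amounts in NP-40 versus SDS lysates quantified by mass spectrometry, three biological replicates.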
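Throughout, for solubility in G1/S (NP-40 vs SDS abundance): HeLa Kyoto cells arrested at G1/S by double thymidine block, proteins quantified by TMT10plex mass spectrometry in mild NP-40 versus SDS extracts, three biological replicates.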
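Throughout, for thermal stability score vs G1/S (z-score of summed log2 fold changes over temperatures): synchronized HeLa Kyoto cells, proteins quantified by TMT10plex mass spectrometry, three biological replicates, mitosis taken 0.5 h after nocodazole release, G1/S directly after double thymidine block.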

Sequence	solubility in G1/S (log2) (HeLa Kyoto [1])	melting temperature (HeLa Kyoto [2]; cell cycle stage: G1/S) [°C]	melting temperature (HeLa Kyoto [2]; cell cycle stage: mitosis) [°C]	solubility change mitosis (log2) (HeLa Kyoto [3])	thermal stability score (HeLa Kyoto [4]; [5])	thermal stability score (HeLa Kyoto [4]; cell cycle stage: mitosis)
MSRGPEEVNRLTESTYRNVMEQFNPGLRNLINLGKNYEKAVNAMILAGKAYYDGVAKIGEIATGSPVSTELGHVLIEISSTHKKLNESLDENFKKFHKEIIHELEKKIELDVKYMNATLKRYQTEHKNKLESLEKSQAELKKIRRKSQGSRNALKYEHKEIEYVETVTSRQSEIQKFIADGCKEALLEEKRRFCFLVDKHCGFANHIHYYHLQSAELLNSKLPRWQETCVDAIKVPEKIMNMIEEIKTPASTPVSGTPQASPMIERSNVVRKDYDTLSKCSPKMPPAPSGRAYTSPLIDMFNNPATAAPNSQRVNNSTGTSEDPSLQRSVSVATGLNMMKKQKVKTIFPHTAGSNKTLLSFAQGDVITLLIPEEKDGWLYGEHDVSKARGWFPSSYTKLLEENETEAVTVPTPSPTPVRSISTVNLSENSSVVIPPPDYLECLSMGAAADRRADSARTTSTFKAPASKPETAAPNDANGTAKPPFLSGENPFATVKLRPTVTNDRSAPIIR [BAIAP2L1]	0.326	52.7	54.1	-0.0797	1.74	1.36
MSRQNLVALTVTTLLGVAVGGFVLWKGIQRRRRSKTSPVTQQPQQKVLGSRELPPPEDDQLHSSAPRSSWKERILKAKVVTVSQEAEWDQIEPLLRSELEDFPVLGIDCEWVNLEGKASPLSLLQMASPSGLCVLVRLPKLICGGKTLPRTLLDILADGTILKVGVGCSEDASKLLQDYGLVVRGCLDLRYLAMRQRNNLLCNGLSLKSLAETVLNFPLDKSLLLRCSNWDAETLTEDQVIYAARDAQISVALFLHLLGYPFSRNSPGEKNDDHSSWRKVLEKCQGVVDIPFRSKGMSRLGEEVNGEATESQQKPRNKKSKMDGMVPGNHQGRDPRKHKRKPLGVGYSARKSPLYDNCFLHAPDGQPLCTCDRRKAQWYLDKGIGELVSEEPFVVKLRFEPAGRPESPGDYYLMVKENLCVVCGKRDSYIRKNVIPHEYRKHFPIEMKDHNSHDVLLLCTSCHAISNYYDNHLKQQLAKEFQAPIGSEEGLRLLEDPERRQVRSGARALLNAESLPTQRKEELLQALREFYNTDVVTEEMLQEAASLETRISNENYVPHGLKVVQCHSQGGLRSLMQLESRWRQHFLDSMQPKHLPQQWSVDHNHQKLLRKFGEDLPIQLS [EXD2]	0.113	49.7	49.6	-0.0547	0.38	0.455
MSRRLLPRAEKRRRRLEQRQQPDEQRRRSGAMVKMAAAGGGGGGGRYYGGGSEGGRAPKRLKTDNAGDQHGGGGGGGGGAGAAGGGGGGENYDDPHKTPASPVVHIRGLIDGVVEADLVEALQEFGPISYVVVMPKKRQALVEFEDVLGACNAVNYAADNQIYIAGHPAFVNYSTSQKISRPGDSDDSRSVNSVLLFTILNPIYSITTDVLYTICNPCGPVQRIVIFRKNGVQAMVEFDSVQSAQRAKASLNGADIYSGCCTLKIEYAKPTRLNVFKNDQDTWDYTNPNLSGQGDPGSNPNKRQRQPPLLGDHPAEYGGPHGGYHSHYHDEGYGPPPPHYEGRRMGPPVGGHRRGPSRYGPQYGHPPPPPPPPEYGPHADSPVLMVYGLDQSKMNCDRVFNVFCLYGNVEKVKFMKSKPGAAMVEMADGYAVDRAITHLNNNFMFGQKLNVCVSKQPAIMPGQSYGLEDGSCSYKDFSESRNNRFSTPEQAAKNRIQHPSNVLHFFNAPLEVTEENFFEICDELGVKRPSSVKVFSGKSERSSSGLLEWESKSDALETLGFLNHYQMKNPNGPYPYTLKLCFSTAQHAS [HNRNPL]	-0.26	46.4	48.1	0.228	5.28	10.5
MSRRYDSRTTIFSPEGRLYQVEYAMEAIGHAGTCLGILANDGVLLAAERRNIHKLLDEVFFSEKIYKLNEDMACSVAGITSDANVLTNELRLIAQRYLLQYQEPIPCEQLVTALCDIKQAYTQFGGKRPFGVSLLYIGWDKHYGFQLYQSDPSGNYGGWKATCIGNNSAAAVSMLKQDYKEGEMTLKSALALAIKVLNKTMDVSKLSAEKVEIATLTRENGKTVIRVLKQKEVEQLIKKHEEEEAKAEREKKEKEQKEKDK [PSMA4]	0.45	59.5	60.5	-0.0614	-0.647	-0.541
MSRSYNDELQFLEKINKNCWRIKKGFVPNMQVEGVFYVNDALEKLMFEELRNACRGGGVGGFLPAMKQIGNVAALPGIVHRSIGLPDVHSGYGFAIGNMAAFDMNDPEAVVSPGGVGFDINCGVRLLRTNLDESDVQPVKEQLAQAMFDHIPVGVGSKGVIPMNAKDLEEALEMGVDWSLREGYAWAEDKEHCEEYGRMLQADPNKVSARAKKRGLPQLGTLGAGNHYAEIQVVDEIFNEYAAKKMGIDHKGQVCVMIHSGSRGLGHQVATDALVAMEKAMKRDKIIVNDRQLACARIASPEGQDYLKGMAAAGNYAWVNRSSMTFLTRQAFAKVFNTTPDDLDLHVIYDVSHNIAKVEQHVVDGKERTLLVHRKGSTRAFPPHHPLIAVDYQLTGQPVLIGGTMGTCSYVLTGTEQGMTETFGTTCHGAGRALSRAKSRRNLDFQDVLDKLADMGIAIRVASPKLVMEEAPESYKNVTDVVNTCHDAGISKKAIKLRPIAVIKG [RTCB]	0.171	53	52.4	0.0881	-2.97	-3.42
MSRYLLPLSALGTVAGAAVLLKDYVTGGACPSKATIPGKTVIVTGANTGIGKQTALELARRGGNIILACRDMEKCEAAAKDIRGETLNHHVNARHLDLASLKSIREFAAKIIEEEERVDILINNAGVMRCPHWTTEDGFEMQFGVNHLGHFLLTNLLLDKLKASAPSRIINLSSLAHVAGHIDFDDLNWQTRKYNTKAAYCQSKLAIVLFTKELSRRLQGSGVTVNALHPGVARTELGRHTGIHGSTFSSTTLGPIFWLLVKSPELAAQPSTYLAVAEELADVSGKYFDGLKQKAPAPEAEDEEVARRLWAESARLVGLEAPSVREQPLPR [RDH13]	0.415	51.1	51.6	0.0735	-0.911	-0.156
MSSDASQGVITTPPPPSMPHKERYFDRINENDPEYIRERNMSPDLRQDFNMMEQRKRVTQILQSPAFREDLECLIQEQMKKGHNPTGLLALQQIADYIMANSFSGFSSPPLSLGMVTPINDLPGADTSSYVKGEKLTRCKLASLYRLVDLFGWAHLANTYISVRISKEQDHIIIIPRGLSFSEATASNLVKVNIIGEVVDQGSTNLKIDHTGFSPHAAIYSTRPDVKCVIHIHTLATAAVSSMKCGILPISQESLLLGDVAYYDYQGSLEEQEERIQLQKVLGPSCKVLVLRNHGVVALGETLEEAFHYIFNVQLACEIQVQALAGAGGVDNLHVLDFQKYKAFTYTVAASGGGGVNMGSHQKWKVGEIEFEGLMRTLDNLGYRTGYAYRHPLIREKPRHKSDVEIPATVTAFSFEDDTVPLSPLKYMAQRQQREKTRWLNSPNTYMKVNVPEESRNGETSPRTKITWMKAEDSSKVSGGTPIKIEDPNQFVPLNTNPNEVLEKRNKIREQNRYDLKTAGPQSQLLAGIVVDKPPSTMQFEDDDHGPPAPPNPFSHLTEGELEEYKRTIERKQQGLEDAEQELLSDDASSVSQIQSQTQSPQNVPEKLEENHELFSKSFISMEVPVMVVNGKDDMHDVEDELAKRVSRLSTSTTIENIEITIKSPEKIEEVLSPEGSPSKSPSKKKKKFRTPSFLKKNKKKEKVEA [ADD3]	-0.181	55.9	55.5	0.481	-4.93	-3.64
MSSEDREAQEDELLALASIYDGDEFRKAESVQGGETRIYLDLPQNFKIFVSGNSNECLQNSGFEYTICFLPPLVLNFELPPDYPSSSPPSFTLSGKWLSPTQLSALCKHLDNLWEEHRGSVVLFAWMQFLKEETLAYLNIVSPFELKIGSQKKVQRRTAQASPNTELDFGGAAGSDVDQEEIVDERAVQDVESLSNLIQEILDFDQAQQIKCFNSKLFLCSICFCEKLGSECMYFLECRHVYCKACLKDYFEIQIRDGQVQCLNCPEPKCPSVATPGQVKELVEAELFARYDRLLLQSSLDLMADVVYCPRPCCQLPVMQEPGCTMGICSSCNFAFCTLCRLTYHGVSPCKVTAEKLMDLRNEYLQADEANKRLLDQRYGKRVIQKALEEMESKEWLEKNSKSCPCCGTPIEKLDGCNKMTCTGCMQYFCWICMGSLSRANPYKHFNDPGSPCFNRLFYAVDVDDDIWEDEVED [RNF14]	0.119	49.6	49.1	-0.286	0.508	1.14
MSSFSESALEKKLSELSNSQQSVQTLSLWLIHHRKHAGPIVSVWHRELRKAKSNRKLTFLYLANDVIQNSKRKGPEFTREFESVLVDAFSHVAREADEGCKKPLERLLNIWQERSVYGGEFIQQLKLSMEDSKSPPPKATEEKKSLKRTFQQIQEEEDDDYPGSYSPQDPSAGPLLTEELIKALQDLENAASGDATVRQKIASLPQEVQDVSLLEKITDKEAAERLSKTVDEACLLLAEYNGRLAAELEDRRQLARMLVEYTQNQKDVLSEKEKKLEEYKQKLARVTQVRKELKSHIQSLPDLSLLPNVTGGLAPLPSAGDLFSTD [RPRD1B]	0.562	49.5	50	0.00357	-0.302	0.484
MSSGAPQKSSPMASGAEETPGFLDTLLQDFPALLNPEDPLPWKAPGTVLSQEEVEGELAELAMGFLGSRKAPPPLAAALAHEAVSQLLQTDLSEFRKLPREEEEEEEDDDEEEKAPVTLLDAQSLAQSFFNRLWEVAGQWQKQVPLAARASQRQWLVSIHAIRNTRRKMEDRHVSLPSFNQLFGLSDPVNRAYFAVFDGHGGVDAARYAAVHVHTNAARQPELPTDPEGALREAFRRTDQMFLRKAKRERLQSGTTGVCALIAGATLHVAWLGDSQVILVQQGQVVKLMEPHRPERQDEKARIEALGGFVSHMDCWRVNGTLAVSRAIGDVFQKPYVSGEADAASRALTGSEDYLLLACDGFFDVVPHQEVVGLVQSHLTRQQGSGLRVAEELVAAARERGSHDNITVMVVFLRDPQELLEGGNQGEGDPQAEGRRQDLPSSLPEPETQAPPRS [PPM1F]	0.464	51.8	52.7	-0.0364	-0.813	-0.95
MSSGIHVALVTGGNKGIGLAIVRDLCRLFSGDVVLTARDVTRGQAAVQQLQAEGLSPRFHQLDIDDLQSIRALRDFLRKEYGGLDVLVNNAGIAFKVADPTPFHIQAEVTMKTNFFGTRDVCTELLPLIKPQGRVVNVSSIMSVRALKSCSPELQQKFRSETITEEELVGLMNKFVEDTKKGVHQKEGWPSSAYGVTKIGVTVLSRIHARKLSEQRKGDKILLNACCPGWVRTDMAGPKATKSPEEGAETPVYLALLPPDAEGPHGQFVSEKRVEQW [CBR1]	0.626	53.2	53	-0.0843	-1.36	-0.874
MSSGKSARYNRFSGGPSNLPTPDVTTGTRMETTFGPAFSAVTTITKADGTSTYKQHCRTPSSSSTLAYSPRDEEDSMPPISTPRRSDSAISVRSLHSESSMSLRSTFSLPEEEEEPEPLVFAEQPSVKLCCQLCCSVFKDPVITTCGHTFCRRCALKSEKCPVDNVKLTVVVNNIAVAEQIGELFIHCRHGCRVAGSGKPPIFEVDPRGCPFTIKLSARKDHEGSCDYRPVRCPNNPSCPPLLRMNLEAHLKECEHIKCPHSKYGCTFIGNQDTYETHLETCRFEGLKEFLQQTDDRFHEMHVALAQKDQEIAFLRSMLGKLSEKIDQLEKSLELKFDVLDENQSKLSEDLMEFRRDASMLNDELSHINARLNMGILGSYDPQQIFKCKGTFVGHQGPVWCLCVYSMGDLLFSGSSDKTIKVWDTCTTYKCQKTLEGHDGIVLALCIQGCKLYSGSADCTIIVWDIQNLQKVNTIRAHDNPVCTLVSSHNVLFSGSLKAIKVWDIVGTELKLKKELTGLNHWVRALVAAQSYLYSGSYQTIKIWDIRTLDCIHVLQTSGGSVYSIAVTNHHIVCGTYENLIHVWDIESKEQVRTLTGHVGTVYALAVISTPDQTKVFSASYDRSLRVWSMDNMICTQTLLRHQGSVTALAVSRGRLFSGAVDSTVKVWTC [TRAF7]	-0.171	50.5	–	-0.0251	-0.465	0.328
